# Results from patent US20120316071A1 (published 2012).
# Where a chain is given by its changes, count along the chain named. Names may count otherwise.
# T1: rHuman Erythropoietin R/Fc Chimera, CF (R&D Systems Cat#963-ER) (human, UniProt P19235 25-250)
# T1 construct: Bought recombinant protein; also called EPO R; EPO R/Fc
# T1 sequence (looked up): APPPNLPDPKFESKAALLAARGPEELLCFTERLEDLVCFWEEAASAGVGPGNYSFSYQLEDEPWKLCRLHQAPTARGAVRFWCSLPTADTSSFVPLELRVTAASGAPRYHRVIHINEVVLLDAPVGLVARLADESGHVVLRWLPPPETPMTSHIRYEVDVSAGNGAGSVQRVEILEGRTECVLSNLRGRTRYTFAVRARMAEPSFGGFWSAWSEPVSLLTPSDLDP
# B1: Fab H:APFF LTH & L6_IGKJ1*01 S28N/S30D/S31H S52L/A55S (NDH LS) (Fab, V domains shown)
# VH: QVQLVQSGAEVKKPGASVKVSCKASGYTFTSYYMHWVRQAPGQGLEWMGIILPTGHSTSYAQKFQGRVTMTRDTSTSTVYMELSSLRSEDTAVYYCAREEYAPFSAEYFQFWGQGTLVTVSS
# VL: EIVLTQSPATLSLSPGERATLSCRASQNVDHYLAWYQQKPGQAPRLLIYDALNRSTGIPARFSGSGSGTDFTLTISSLEPEDFAVYYCQQRSNWPPWTFGQGTKVEIKR
# notes: Fab; also called H:APFF LTH & L:NDH LS
# B2: Fab H:APFF VLTH & L6_IGKJ1*01 S28N/S30D/S31H (NDH) (Fab, V domains shown)
# VH: B1 VH with I51V
# VL: B1 VL with L52S, S55A
# notes: Fab; also called H:APFF VLTH & L:NDH
# B3: Fab VH5-51_IGHD5-18*01>3_IGHJ4*01 G100K/G104T/G24T/S28R/G35V (KT TRV) & V3-4_IGLJ1*01 (Fab, V domains shown)
# VH: EVQLVQSGAEVKKPGESLKISCKTSGYRFTSYWIVWVRQMPGKGLEWMGIIYPGDSDTRYSPSFQGQVTISADKSISTAYLQWSSLKASDTAMYYCARRKYSYTYDYFDYWGQGTLVTVSS
# VL: QTVVTQEPSFSVSPGGTVTLTCGLSSGSVSTSYYPSWYQQTPGQAPRTLIYSTNTRSSGVPDRFSGSILGNKAALTITGAQADDESDYYCVLYMGSGISYVFGTGTKVTVL
# notes: Fab; also called H:KT TRV & L:wt; H:KT TRV & V3-4_IGLJ1*01
# B4: Fab VH5-51_IGHD5-18*01>3_IGHJ4*01 G100K/G104T G24T/S28R/G35V (H:KT TRV) & V3-4_IGLJ1*01 V91L/S96P (L:LP) (Fab, V domains shown)
# VH: B3 VH
# VL: B3 VL with V91L, S96P
# notes: Fab; also called H:KT TRV & L:LP
# B5: Fab VH5-51_IGHD5-18*01>3_IGHJ4*01 G100K/G104T G24T/S28R/G35V (H:KT TRV) & V3-4_IGLJ1*01 V91L/S96P S52G (L:LP S52G) (Fab, V domains shown)
# VH: B3 VH
# VL: B3 VL with S52G, V91L, S96P
# notes: Fab; also called H:KT TRV & L:LP S52G
# B6: Fab VH1-46_IGHD6-6*01_IGHJ1*01 S102A/S103P/S104F/H111F F29A & L6_IGKJ1*01 (Fab, V domains shown)
# VH: B1 VH with F29A, L52N, T54S, H56G
# VL: not shown
# notes: Fab as for m1 (CH1 with His6/Flag tags, kappa CL); also called APFF F29A
# B7: Fab VH1-46_IGHD6-6*01_IGHJ1*01 S102A/S103P/S104F/H111F & L6_IGKJ1*01 (Fab, V domains shown)
# VH: B1 VH with L52N, T54S, H56G
# VL: not shown
# notes: Tested as a Fab made in E. coli; The heavy chain vector (Plasmid A) adds CH1 with His6 and Flag tags; The light chain vector (Plasmid C) adds kappa CL; also called APFF; H:APFF & L:wt
# B8: Fab VH1-46_IGHD6-6*01_IGHJ1*01 S102A/S103P/S104F/H111F I51V/N52L/S54T/G56H & L6_IGKJ1*01 S28N/S30D/S31H S52L/A55S (Fab, V domains shown)
# VH: B1 VH with I51V
# VL: B1 VL
# notes: Fab; Constant parts come from Plasmid A (CH1, His6, Flag) and Plasmid C (kappa CL); also called H:APFF VLTH & L:NDH LS
# B9: Fab VH5-51_IGHD5-18*01>3_IGHJ4*01 G100K/G104T G24T/S28R/G35V & V3-4_IGLJ1*01 (Fab, V domains shown)
# VH: B3 VH
# VL: B3 VL
# notes: Fab; Constant parts come from Plasmid A (CH1, His6, Flag) and Plasmid E (lambda CL); also called H:KT TRV & L:wt; H:KT TRV & V3-4_IGLJ1*01
# B10: Fab VH5-51_IGHD5-18*01>3_IGHJ4*01 G100K/G104T G24T/S28R/G35V & V3-4_IGLJ1*01 V91L/S96P S52G (Fab, V domains shown)
# VH: B3 VH
# VL: B3 VL with S52G, V91L, S96P
# notes: Fab; Constant parts come from Plasmid A (CH1, His6, Flag) and Plasmid E (lambda CL); also called H:KT TRV & L:LP S52G
# B11: Fab H:APFF VLTH & L6_IGKJ1*01 S28N/S30D/S31H S52L/A55G (NDH LG) (Fab, V domains shown)
# VH: B1 VH with I51V
# VL: B1 VL with S55G
# notes: Fab; also called H:APFF VLTH & L:NDH LG
# B12: Fab VH1-46_IGHD6-6*01_IGHJ1*01 S102A/S103P/S104F/H111F I51V/N52L/S54T/G56H (H:APFF VLTH) & L6_IGKJ1*01 S28N/S30D/S31H S52L/A55S (L:NDH LS) (Fab, V domains shown)
# VH: B1 VH with I51V
# VL: B1 VL
# notes: Fab; also called H:APFF VLTH & L:NDH LS
# Assays:
# [1] = target: T2, Recombinant Human DLL4 (R&D Systems Cat#1506-D4/CF) (human, UniProt Q9NR61 27-524); assay: ELISA titration, 3-fold dilutions from 20 nM Fab
# T2 construct: bought recombinant protein; also called rHuman DLL4; delta-like protein 4
# [2] = target: T2, Recombinant Human DLL4 (R&D Systems …); assay: SPR
# [3] = target: T1, rHuman Erythropoietin R/Fc Chimera, CF …; assay: ECL Multispot (MSD) assay, antigen spotted on plate, 10 nM Fab;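 also: purified Fab bound to antigen spots for 1 h at 20 °C, then TAG detection antibody, electrochemiluminescence compared with each well's blank, ratio of 4 or more marks a hit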
# [4] = target: T3, rHuman IGF-1 sR (insulin-like growth factor-1 soluble receptor), CF (R&D Systems Cat#391-GR) (human, UniProt P08069 31-932); assay: as above
# T3 construct: Bought recombinant soluble receptor
# [5] = target: T4, rHuman ErbB2/Fc Chimera, CF (R&D Systems Cat#1129-ER) (human, UniProt P04626 23-652); assay: as above
# T4 construct: Bought recombinant protein
# [6] = target: T5, Recombinant Human DLL4 (R&D Systems Cat#1506-D4/CF) (human, UniProt Q9NR61 27-524); assay: as above
# T5 construct: Bought recombinant protein; also called delta-like protein 4; rHuman DLL4
# [7] = target: T6, rHuman HGF R/c-MET/Fc Chimera, CF (R&D Systems Cat#358-MT/CF) (human, UniProt P08581 25-932); assay: as above
# T6 construct: Bought recombinant protein; also called HGF R/Fc
# [8] = target: T7, rHuman P-Cadherin/Fc Chimera, CF (R&D Systems Cat#861-PC) (human, UniProt P22223 108-654); assay: as above
# T7 construct: Bought recombinant protein
# [9] = target: T8, rHuman CD44/Fc Chimera, CF (R&D Systems Cat#3660-CD) (human, UniProt P16070 21-220); assay: as above
# T8 construct: Bought recombinant protein
# [10] = target: T9, rHuman EGF R/Fc Chimera, CF (R&D Systems Cat#344-ER) (human, UniProt P00533 25-645); assay: as above
# T9 construct: Bought recombinant protein
# [11] = target: T5, Recombinant Human DLL4 (R&D Systems …); assay: ECL (MSD) binding assay, DLL4 signal divided by blank, repeat experiment
# [12] = target: T5, Recombinant Human DLL4 (R&D Systems …); assay: ECL (MSD) binding assay, immobilised DLL4, repeat experiment
# [13] = target: T10, Recombinant Human DLL4 (R&D Systems Cat#1506-D4/CF) (human, UniProt Q9NR61 27-524); assay: ECL multispot (MSD) binding assay; antigen spotted on plate, Fab in solution, Ru-labelled anti-kappa detection;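 also: purified Fab in 1% BSA TBST incubated 1 h at 20 °C with shaking, signal compared with each well's blank, signal/blank ratio of 4 or above counted as binder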
# T10 construct: Bought from R&D Systems; also called delta-like protein 4; rHuman DLL4
# [14] = target: T11, rHuman HGF R/c-MET/Fc Chimera, CF (R&D Systems Cat#358-MT/CF) (human, UniProt P08581 25-932); assay: as above
# T11 construct: Bought from R&D Systems; also called HGF R/Fc; hepatocyte growth factor receptor; Fc part of the bought chimera not given
# [15] = target: T12, rHuman ErbB2/Fc Chimera, CF (R&D Systems Cat#1129-ER) (human, UniProt P04626 23-652); assay: as above
# T12 construct: Bought from R&D Systems; also called human epidermal growth factor 2 receptor; Fc part of the bought chimera not given
# [16] = target: T13, rHuman IGF-1 sR, CF (R&D Systems Cat#391-GR) (human, UniProt P08069 31-932); assay: as above
# T13 construct: Bought from R&D Systems as a soluble receptor; also called insulin-like growth factor-1 soluble receptor
# [17] = target: T14, rHuman EGF R/Fc Chimera, CF (R&D Systems Cat#344-ER) (human, UniProt P00533 25-645); assay: as above
# T14 construct: Bought from R&D Systems; also called epidermal growth factor receptor; Fc part of the bought chimera not given
# [18] = target: T15, rHuman P-Cadherin/Fc Chimera, CF (R&D Systems Cat#861-PC) (human, UniProt P22223 108-654); assay: as above
# T15 construct: Bought from R&D Systems; Fc part of the bought chimera not given
# [19] = target: T16, full-length human DLL4 expressed on the surface of CHO cells (human, UniProt Q9NR61 26-685); assay: competition, flow cytometry; 250 nM biotinylated Notch-Fc as competitor on CHO-DLL4 cells, streptavidin-PE
# T16 construct: also called CHO-DLL4; DLL4-expressing CHO cells
binder,measurement,setting,value
B1,fold binding affinity against the antibody mutants with heavy chain H:APFF ALTH,[1],~10 fold
B2,fold binding affinity against the antibody mutants with heavy chain H:APFF ALTH,[1],~10 fold
B3,fold binding affinity against the parental Fab,[2],130 fold
B4,fold binding affinity against the parental Fab,[2],1000 fold
B5,fold binding affinity against the parental Fab,[2],1000 fold
B6,ECL signal,[3],466
same,ECL signal,[4],315
same,ECL signal,[5],244
same,ECL signal,[6],80700
same,ECL signal,[7],404
same,ECL signal,[8],276
same,ECL signal,[9],414
same,ECL signal,[10],293
same,Signal/Noise,[11],238
same,ECL signal,[12],109000
B7,ECL signal,[13],197000
same,ECL signal,[14],252
same,ECL signal,[15],263
same,ECL signal,[16],342
same,ECL signal,[17],279
same,ECL signal,[18],318
B8,signal of biotinylated Notch-Fc bound to CHO-DLL4 cells at 2 nM Fab (read-out not given),[19],117
same,signal of biotinylated Notch-Fc bound to CHO-DLL4 cells at 10 nM Fab (read-out not given),[19],30
B9,signal of biotinylated Notch-Fc bound to CHO-DLL4 cells at 2 nM Fab (read-out not given),[19],448
same,signal of biotinylated Notch-Fc bound to CHO-DLL4 cells at 10 nM Fab (read-out not given),[19],244
B10,signal of biotinylated Notch-Fc bound to CHO-DLL4 cells at 2 nM Fab (read-out not given),[19],250
same,signal of biotinylated Notch-Fc bound to CHO-DLL4 cells at 10 nM Fab (read-out not given),[19],190
B11,fold binding affinity against the antibody mutants with heavy chain H:APFF ALTH,[1],~10 fold
B12,fold binding affinity against the antibody mutants with heavy chain H:APFF ALTH,[1],~10 fold
same,fold binding affinity against the parent Fab,[2],430 fold
